From publication PMC2836974 (Molecular Biology of the Cell, 2010)

Legend:
[1] = biological target: RasG, GST fusion, loaded with mGppNHp (Dictyostelium discoideum, UniProt P15064 1-189); experiment: guanine nucleotide dissociation inhibition
[2] = biological target: T1, C-terminal-truncated Rap1 (amino acids 1-169), GST fusion, loaded with mGppNHp (Dictyostelium discoideum, UniProt P18613 1-169); experiment: guanine nucleotide dissociation inhibition
T1 sequence: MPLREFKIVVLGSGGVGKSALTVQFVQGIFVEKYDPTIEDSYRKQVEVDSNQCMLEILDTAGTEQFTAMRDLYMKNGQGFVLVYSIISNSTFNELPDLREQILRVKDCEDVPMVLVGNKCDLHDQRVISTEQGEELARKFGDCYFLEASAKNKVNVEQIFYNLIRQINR

RasG, GST fusion, loaded with mGppNHp, sequence (P15064 whole entry, the tested form may be a part): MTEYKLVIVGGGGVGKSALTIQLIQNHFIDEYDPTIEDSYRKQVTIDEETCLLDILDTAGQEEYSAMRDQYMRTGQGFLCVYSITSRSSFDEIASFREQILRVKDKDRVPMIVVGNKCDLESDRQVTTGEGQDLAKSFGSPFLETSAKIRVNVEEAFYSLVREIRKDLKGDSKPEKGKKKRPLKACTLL

B1: PI3K2-RBD (RBD domain of PI3K2, amino acids 757-918) (domain or fragment)
chain: GHIQAELEIFELIGTSFTRVLDQGQEVVSFRRDFAQFRLSNFTSTRNDLSQMIYVSSEPLPLTIPNKITIMVLLPGDGKIIKRVDCCPNSSVGDVKKEIFKKFAMIDRVHTQGKTQDDFVLKVTGFREYILCIHELGNLTSRQRFYPTGSGGDFSLMDYDYI
For B1, the Kd [1] was 24 µM and the Kd [2] was 40 µM.
